# According to the DeepSol protein solubility set:
# Test: soluble on expression in E. coli; label from the status in PepcDB or PDB records
row,Sequence,soluble on expression in E. coli
1,MLILSFLCPAFLNAQIVTDERMFSFEEPQLPACITGVQSQLGISGAHYKDGKHSLEWTFEPNGRLELRKDLKFEKKDPTGKDLYLSAFIVWIYNEQPQDAAIEFEFLKDGRKCASFPFGINFKGWRAAWVCYERDMQGTPEEGMNELRIVAPDAKGRLFIDHLITATKVDARQQTADLQVPFVNAGTTNHWLVLYKHSLLKPDIELTPVSDKQRQEMKLLEKRFRDMIYTKGKVTEKEAETIRKKYDLYQITYKDGQVSGVPVFMVRASEAYERMIPDWDKDMLTKMGIEMRAYFDLMKRIAVAYNNSEAGSPIRKEMRRKFLAMYDHITDQGVAYGSCWGNIHHYGYSVRGLYPAYFLMKDVLREEGKLLEAERTLRWYAITNEVYPKPEGNGIDMDSFNTQTTGRIASILMMEDTPEKLQYLKSFSRWIDYGCRPAPGLAGSFKVDGGAFHHRNNYPAYAVGGLDGATNMIYLFSRTSLAVSELAHRTVKDVLLAMRFYCNKLNFPLSMSGRHPDGKGKLVPMHYAIMAIAGTPDGKGDFDKEMASAYLRLVSSDSSSAEQAPEYMPKVSNAQERKIAKRLVENGFRAEPDPQGNLSLGYGCVSVQRRENWSAVARGHSRYLWAAEHYLGHNLYGRYLAHGSLQILTAPPGQTVTPTTSGWQQEGFDWNRIPGVTSIHLPLDLLKANVLNVDTFSGMEEMLYSDEAFAGGLSQGKMNGNFGMKLHEHDKYNGTHRARKSFHFIDGMIVCLGSDIENTNMDYPTETTIFQLAVTDKAAHDYWKNNAGEGKVWMDHLGTGYYVPVAARFEKNFPQYSRMQDTGKETKGDWVSLIIDHGKAPKAGSYEYAILPGTDRKTMTAFAKKPAYSVLQQDRNAHILESPSDRITSYVLFETPQSLLPGGLLQRTDTSCLVMVRKESADKVLLTVAQPDLALYRGPSDEAFDKDGKRMERSIYSRPWIDNESGEIPVTVTLKGRWKVVETPYCKVVSEDKKQTVLRFLCKDGASYEVELEKLEHHHHHH,soluble
2,MNALLRFTLGLCSMTLLAGCGENIDHSKIRSSGFVYCGESAPTTFNPQLADNDITSDALGPQIYNTLLTIDPETHLPVASLASSWTVNSTGLEYVFKLRPDVAFQTTPWFSPTRPLNADDVVFSFRRIIDPTNPYHKVGQTQYPWFKGIDFQNLLVDVSALDDLTVKFVLSRPDNSFLSNIATSHAVILSLEYANQLIIDDEKEKLDNLPLGTGPFYLAEYHPRDLIRLKRHPQYWEGAAKVEQVVFDISQRGTGMLAKLLRNECDVLNAPISSQLPAIEKNPDIVLQTTPAMNVAFIAVNTQHPALNDNRVRKALNFAINRQNILDSVYYGTGSIAFTILPPTSWAYQQDTAQIRYDRNYAQALLREAGFATGLELTMSVPVEPKAYNPSPRKTAELIQANLADIGVTLRLISEDRSERQELSIRNNIDLYLSGWTGDTGDPDNFLRPLLSCDSNRAGLNVSMWCDSDFDFLLDLALEANKPRYRLNLYHQAQNILNQEFPVIPLAHGIQFTAYSKSLTGIRISPFNVQPFNTVERVAE,not soluble
3,MGSDKIHHHHHHDDNEIEIPKAPVLEKAQLALAIKSEEGAVTKTGETTPTDADVNTLTVGVFGVDGWSVIYTKDATPNSDGTKDVGPQEVYAGEAHVVVVANAAPVIQTELAKAKDITDFIETTINLSDETLTKGLTMSSKVLDVTLVANTTNYIGYDDEVGDITVKDISGKEVYGAGPVPLVRDVASIALAGADIGNPENANYESKSFVLKEVFIASAKGVSSVASTEEWGTIEKDFFGDTHFGYLDYKVGLLFLTSPNNIDEGSYKKGLQTKYDALAKKHVENDPALNHEFYVYENTKGEVKSGESNVNEAYANHTLLIVKGDYTYLPQGAKESITKENCYYAIPVGEEVTIDGTEKRSKFYVQRNYKYEISLTIIGPGSEIPYDPMISTNVSASVKVEPWNVKTIHEEVE,not soluble
4,MEVHKAITAHSRKQNESVKACLQLDAQREAAIEAAVSLASNGKEFSVDVINVVTKQINDLAKNGVTLQRKYVTEEMVMEYVSRLKKKEGR,not soluble
5,GAMEAEKEFITMLKENQVDSTWSFSRIISELGTRDPRYWMVDDDPLWKKEMFEKYLSNR,soluble
6,MRLDYWSDSSKPIQQQWRDYDEISDNFKKAVVAAEDGKFVHHHGFDWEGIQYALEKNEKSGEVVNGGSTISQQLAKNLFLYNQRSLIRKGQEAIATWMMERMWSKQRILEVYMNSVQFGDHLYGVEAASHYYFHRSAQNLTRDQAAFLAALLPNPKYYQENRNDPRFKFKKRFTLKYMRYSEIP,not soluble
7,MHHHHHHSSGVDLGTENLYFQSMSSVTASAAPGTASLVPDYWIDGSNRDALSDFFEVESELGRGATSIVYRCKQKGTQKPYALKVLKKTVDKKIVRTEIGVLLRLSHPNIIKLKEIFETPTEISLVLELVTGGELFDRIVEKGYYSERDAADAVKQILEAVAYLHENGIVHRDLKPENLLYATPAPDAPLKIADFGLSKIVEHQVLMKTVCGTPGYCAPEILRGCAYGPEVDMWSVGIITYILLCGFEPFYDERGDQFMFRRILNCEYYFISPWWDEVSLNAKDLVRKLIVLDPKKRLTTFQALQHPWVTGKAANFVHMDTAQKKLQEFNARRKLKAAVKAVVASSRLG,soluble
8,HKFIRTAIDMDKNRAFSSRLRQSIKDYFDMPWYLTFADAERLSDLRDEALVLRDDEVTGQVPMEVEYEEFQQVNDELSERIGDMLKAHKEQGTPIDLSVVLRDYLAQHPYTHHFDLARIIVDQAVRLGYSESDYQAIQPDWKAINEFGAKVQANVIDRY,soluble
9,GPGSMPPKRPLYEVLGVSQDAAEEEISRVYRRMALQYHPDRNPNGEAKFKDIANAYSVLGDSEKRRVYDATGVIPGGAAETDNEATMAERSAEMKERVQVFYATYAGSPEETEDVISCYKKCKGNFRRMAREELLFDNKKQGEIQRLMELVRSLVESGRLNPTEAWKVTNTAAVLKQIERSLTRERKEAKDALDAMGLSAKEGEGGLHALQALMKRDQEAEWSKMMSNLESKYVKPKSATKGVEQNGKRNKRKAEATKTVSAPPQKKSRR,soluble
10,MRFQYQALLNEHQSQLDRFSSHIVATLDKYAHIPHLISKDKELVDALLSAQNSAQIDITNRYLEQVNEVIQAADTYLIDRFGNTIASSNWNLDRSFIGRNFAWRPYFYLSIAGQKSQYFALGSTSGQRGYYYAYPVIYAAEILGVIVVKMDLSAIEQGWQNKSSYFVATDDHQVVFMSSQPAWLFHSVADLSPAQLNDIRQSQQYLDSPIPSLGWQGDLQAEQSEWRKPEKHWLQDDYIVSSRPLPELALTIRVLSPKIE,soluble
11,MSLKDNEKYNALDFIKDDEINSLIAKGKELVSDKELVREIIEKSKSAEGLTPEETAVLLNLEDKELIEEMFKAARQVKEKLYGKRLVVFAPLYVSNYCVNNCTYCGYKHCNDELKRKKLNKEQLIEEVKVLESLGHKRIALEAGEDPVNAPLDYILDCIKSIYSIKFDNGSIRRINVNIAATSVEDYKRLKDAEIGTYILFQETYHKPTYERLHVSGPKHNYNYHTTAMHRAREAGIDDIGMGVLYGLYDYKYETLAMLMHAMDLEETTGVGPHTLSVPRIRPAENVSLENYPYLVDDEDFKKIVAILRLAVPYAGLILSTREEPGLRDEIIALGVSQVSTGSCTGVGGYSESYIDPEEKPQFEVGDHRSPVEMIESLMEAGYIPSYCTACYREGRTGERFMDIVKSGELYKICEANALITLKEFIDDYGTDRTREIGDKLIKKSIDEIDNESFRKSVEEKINKISNGTRDLRFEGHHHHHH,soluble
12,MNILLLDGGKAFGHSHGGLNRTLHKKAKEVLTALGHNVQETVIDAGYDVEAEIEKFVWMDAVIWQMPGWWMHEPWTVKKYIDEVLTAGHGKLYQSDGRHSVNPTEGYGTGGLLQGKKHMISLTWNAPIEAFTREGDFFEGKGVDVLYMHFHKANEFLGMTRLPTFLCNDVVKNPQVEKYLADYQAHLEKVFG,not soluble
13,MGSDKIHHHHHHMPNQPLIFDTAIAKDKPENIRHPHNACPFCDPGQLTDIIAQDADRIWLLNKFPTLQATWQTIVIEAARHDGDIATYSSAQNRAVFTFALKHWQATIASGRFKSVLCYKNFGPHSGGSLRHPHMQIVGLMAADGYANVTAANLTGYSVLAVDQVQVTVSDRPIMGFVEINVAAPATAIAPLADAVQQVVQYTLNTYFHGQCDSYNLFFYPRDDQIVAKVVPLFNVSPYYIGYRLAQADTPKRMRAIAEEIRQQFERSNLAHSN,not soluble
14,MNSRGLILTLGVVIAVAFAQQDSEVEREMMKRKSAYMRFGRSDGGNPMEMEKRKSAYMRFGKRSSGGDEQELVGGDDIDMEKRKSAYMRFGKRSGPQEDDMPMEKRKSAYMRFGKRSSDMEVIGNEGVDGDAHDLFKRKSAYMRFGKRSMGEEEDHDMMKRKSAYMRFGR,not soluble
15,MEGNFSNRVQDVIRLSREEALRLGHDYIGTEHLLLGLIREGEGIGAKILKNLKVDLFQLKQKIEENTHPKVPATQMGNVPLTKQAEKVLKITYLEAKICKSTIIGTEHLLLSILKGDDNIAAQILEQFGVTYDQVRDELMTITT,not soluble
16,MGSDKIHHHHHHMSTAVTFFGQHVLNRVSFLRCSKEFIKKSLNHDSTVFIPFIEGEALISPENGDLVQLSNSVKSYKNILSAIVPLYTTLLNTTRSRSDESGINVTFLGLLEGTDSAFNFEWSNISYKGTPYFGLDIRVTESTLFKKVDFEPIFSYPKVTRDHIFKQTNEDASLYSQGKMYLDWLAKYKFCPGCGSPLFPVEAGTKLQCSNENRNVYCNVRDARINNVCFPRTDPTVIIALTNSDYSKCCLARSKKRYGDFVLYSTIAGFMEPSETIEEACIREIWEETGISCKNIDIVRSQPWPYPCSLMIGCLGIVQFNSKNEVINLNHDDELLDAQWFDTTEIIQALDKYAGGYRVPFKNDINLPGSTTIAFQLINHVCENYKNLRKTSSSHL,not soluble
17,NFTHVKGSVGSNSQYVGQVDSSMAFSDKVNGRINLEYRQADSYVDHVDSNDFFIAPTIRVLPADGHTIDIDVEYAHQELVPYRGVPSKNGKPVDLPVSTYFGGTNDYQESDSLRVAVDYEWRLNDQWVWNNRAAFNHIELEQKGTRQGKVTGNEVSQTVNNFGYDPRTTTTLQSELIWETNDNQLMLGADFNQIDIDLTLASDKTLPPQNIYNPVVGPTPDPGFKPFRDNTTTTTGVYVQDVYTWGDLSVIGNVRYDSMELEQQKAGSGKEKLDDDKVSYRAGLVYRINYDTSVYASLARSWQLPYAGIYINPKLAEFFHTDLKEVGAKAYLLDNALMLNAALFQIDQEQPQTNVDGDVIDKIEVRHQGIELEARGQITKQWDISVGYSYLDAEDKATGKKPNDVSDHLFSLWSTYQLDDNWRLGGGVKYVGDRYAGNDEAVALGDYTTVDLMAAYTTGRHKIQANAYNILDEKYILGATNGTSGLNQIGYGAPAEFMLSYGYQF,not soluble
18,SSAQFDHVTVIKKSNVYFGGLCISHTVQFEDGTKKTLGVILPTEQPLTFETHVPERMEIISGECRVKIADSTESELFRAGQSFYVPGNSLFKIETDEVLDYVCHLE,not soluble
19,MSLTQTILVIDDDAAVRGSFQLVLGEIGCVVRVAEDGLQGIAMAREERPDLIFLDLKMPGIDGVETMRRLLAMDPTFNIYIVTAFSQEYLDDLKQAQAEGMTFQLANKPLSSTQIRHIARSVRSLSNVSKDNHRISLTLYVVSVNPEIQKVVDQLSNVLAATYRAGFWVLNVVEVLGMPEKALEKDVFATPMLVREVPEPVLKLLGDLSRMHSVLSAITAENGHGAGTEGHHHHHH,soluble
20,MEFFGESWKKHLSGEFGKPYFIKLMGFVAEERKHYTVYPPPHQVFTWTQMCDIKDVKVVILGQNPYHGPNQAHGLCFSVQRPVPPPPSLENIYKELSTDIEDFVHPGHGDLSGWAKQGVLLLNAVLTVRAHQANSHKERGWEQFTDAVVSWLNQNSNGLVFLLWGSYAQKKGSAIDRKRHHVLQTAHPSPRSVYRGFFGCRHFSKTNELLQKSGKKPIDWKEL,soluble
